# Reference: article PMC4344358, “Radiation damage to nucleoprotein complexes in macromolecular crystallography” (Journal of Synchrotron Radiation, 2015)
# B1: C.Esp1396I (natural protein)
# chain: MESFLLSKVSFVIKKIRLEKGMTQEDLAYKSNLDRTYISGIERNSRNLTIKSLELIMKGLEVSDVVFFEMLIKEILKHD
# notes: C.Esp1396I, bacterial helix-turn-helix controller protein of a restriction-modification system; native protein; protein chains A-D of the deposited entries; also called C-protein; controller C-protein; source: expression and purification as described earlier (McGeehan et al., 2008); pure protein
# Molecular target: the molecule itself
# Assay: crystal structure; C.Esp1396I (0.7 mg/ml) mixed with 35 bp dsDNA at 4:1 molar ratio; sitting-drop vapour diffusion at 293 K, 50 mM MES pH 7.5, 25% MPD, 40 mM MgCl2; data at 100 K, space group P6(5), 2.8 A; eight datasets of increasing dose from one crystal
protein,measurement,value
B1,stoichiometry N,4
